Test results as given in patent US20200239597A1, “AN ANTI-APOPTOTIC FUNCTION OF PKM2 AND INTRACELLULARLY EXPRESSED SCFV ANTIBODIES” (La Jolla Institute for Allergy and Immunology, priority 2017, published 2020).

Columns and labels:
[1] = test system: MEFs; test: BimS-resistant clonogenic survival in MEFs; format: cell-based, mouse
Protocol: The plates were fixed and stained with crystal violet after 1 week and the total area of colonies were counted as above. The SD and P value was calculated from 6 individual plates.
WT, Mfn1- or Mfn2-deficient MEFs were infected or not with IB5 lentivirus, then 1×10^5 cells were plated and transfected with BimS expression plasmid. The plates were fixed and stained with crystal violet after 1 week and the total areas of colonies were measured as above. Mean, SD and P values were calculated from 5 individual plates.
(§1) Cell viability was measured with a Countess™ Automated Cell Counter (Invitrogen) using trypan blue. For the clonogenic survival assay, 293T or MEFs cells were seeded in 6-well plates at 1×10^5 cells/well in a 2-ml volume, transfected with BimS cDNA and incubated for 24 h. Afterwards, the medium was replaced and the cells cultured for 3-4 days. Thereafter, the plates were rinsed with PBS and fixed and stained with a solution containing crystal violet (0.5% w/v) and glutaraldehyde (6% v/v) as described (Franken et al., 2006).

[2] = test system: HCT116 cells; test: Clonogenic rescue from BimS-induced death, HCT116; format: cell-based
[3] = target: T1, PKM2 (K422R) (Homo sapiens, UniProt P14618, K422R); test: Blue native gel electrophoresis, PKM2 (K422R); format: binding; conditions: with or without FBP
T1 construct: His; made in house; host or cells: Escherichia coli BL21(DE3) (stated generally for WT and mutant PKM2)
T1 sequence (P14618 whole entry K422R): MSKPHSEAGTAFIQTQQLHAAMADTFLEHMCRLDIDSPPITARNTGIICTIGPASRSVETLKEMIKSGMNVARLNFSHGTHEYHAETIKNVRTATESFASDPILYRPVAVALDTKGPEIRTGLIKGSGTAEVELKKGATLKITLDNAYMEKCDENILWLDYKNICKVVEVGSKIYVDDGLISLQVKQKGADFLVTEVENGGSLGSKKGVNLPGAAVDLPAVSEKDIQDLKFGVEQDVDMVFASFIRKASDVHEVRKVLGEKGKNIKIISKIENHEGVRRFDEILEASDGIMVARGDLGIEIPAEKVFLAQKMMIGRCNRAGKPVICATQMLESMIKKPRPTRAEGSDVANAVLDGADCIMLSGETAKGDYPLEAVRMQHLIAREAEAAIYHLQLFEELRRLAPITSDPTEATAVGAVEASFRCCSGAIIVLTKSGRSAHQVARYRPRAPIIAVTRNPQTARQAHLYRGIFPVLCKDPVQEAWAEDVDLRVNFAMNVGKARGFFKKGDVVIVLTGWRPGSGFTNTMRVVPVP
Protocol: (§2) Left: A monovalent form of scFv 5, produced in E. coli, induced tetramer formation in WT PKM2 along with a bandshift whose magnitude was dependent on the input amount of scFv 5. […] Reaction volume was 20 μl.
To test the possibility that PKM2 tetramerization is important for the cell survival activity, the present inventors reconstituted PKM2-deficient MEFs with the stably tetrameric PKIM2 (K422R) mutant. […] Blue native gel electrophoresis confirmed the spontaneous formation of K422R tetramers, in the absence of FBP (FIG. 4A). […] The present inventors conclude that IB5 can bind to PKIM2 (K422R), at least to the active R-state form. Interaction of IB5 may further stabilize the active R-state conformation of PKM2, especially in the presence of the allosteric activators FBP or TEPP-46.

[4] = test system: Bcl-2 family proteins; test: Immunoblots of Bcl-2 family proteins; format: cell-based, human; conditions: alone or in combination; TEPP-46 27 μM
Protocol: Levels of several Bcl-2 family proteins were unchanged following IB5 expression or incubation with TEPP-46, or both. Cell lysates from 293T cells infected with and without IB5 and incubated with and without TEPP-46 (27 μM) were separated on SDS-12% polyacrylamide gels. Bcl-2 family proteins were detected by immunoblotting. The bands were quantified using ImageJ and normalized to the control cell lysate on the leftmost lane.
293T cells were washed with PBS and lysed with PBS containing 1% NP-40. Protein concentration was determined using Pierce™ BCA reagent (ThermoFisher; 23221, 23224). 35 μg protein was loaded in each lane of 12% SDS-PAGE gels. Proteins were transferred to nitrocellulose membrane and immunoblotted with the following primary antibodies: anti-Bax antibody (Santa Cruz N20), anti-Bak antibody (Cell Signaling 3814), anti-Bid antibody (R&D Systems AF860), anti-Bim antibody (Sigma B7929), anti-Puma antibody (Cell Signaling 4976), anti-Bcl-2 antibody (Abcam 32124), anti-Bcl-xL antibody (Cell Signaling 2764) and anti-Mcl-1 (Santa Cruz S19) at 1:1000 dilution. The secondary anti-rabbit and mouse antibodies, conjugated with HRP, were obtained from Santa Cruz and were used at 1:2000 dilution. The luminescence signal was detected using ECL reagent (ThermoFisher 32106).

[5] = target: T2, WT PKM2 (Homo sapiens, UniProt P14618); test: Pyruvate kinase assay (Kinase-Glo Plus), WT PKM2; format: biochemical; conditions: PKM2 at 50 nM; ADP and PEP as substrates
T2 construct: His (N); made in house; host or cells: Escherichia coli BL21(DE3)
T2 sequence (P14618 whole entry): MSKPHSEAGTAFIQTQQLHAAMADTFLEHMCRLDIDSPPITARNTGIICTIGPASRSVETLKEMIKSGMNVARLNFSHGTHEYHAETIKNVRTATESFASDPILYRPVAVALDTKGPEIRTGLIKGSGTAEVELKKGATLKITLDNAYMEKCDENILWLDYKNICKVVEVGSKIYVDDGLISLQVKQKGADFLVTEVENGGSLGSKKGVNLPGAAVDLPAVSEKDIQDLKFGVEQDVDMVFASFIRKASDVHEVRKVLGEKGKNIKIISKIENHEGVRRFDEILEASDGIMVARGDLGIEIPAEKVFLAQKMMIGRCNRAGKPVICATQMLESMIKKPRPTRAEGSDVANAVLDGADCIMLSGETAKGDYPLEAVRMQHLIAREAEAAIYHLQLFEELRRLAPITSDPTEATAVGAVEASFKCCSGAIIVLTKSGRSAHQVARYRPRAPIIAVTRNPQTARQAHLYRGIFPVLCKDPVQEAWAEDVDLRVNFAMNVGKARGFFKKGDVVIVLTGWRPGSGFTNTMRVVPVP
Protocol: Activity was measured by Kinase-Glo® Plus Luminescent Kinase Assay kit (promega), using ADP and PEP as substrates), with PKM2 at 50 nM. Shown are values with the basal activity of PKM2 alone subtracted out.
Pyruvate kinase activity was measured by using Kinase-Glo® Plus Luminescent Kinase Assay kit (Promega). 50-100 nM of purified WT or mutant PKM2 was added in 100 μl assay buffer containing 50 mM Tris pH7.5, 100 mM KCl, 10 mM MgCl2, 200 μM PEP, 200 μM ADP, and 3% DMSO. After a 15-min incubation, Kinase-Glo Plus™ reagent (Promega Corporation, Madison, Wis., USA) was added, according to the manufacturer's instructions. In some cases, 0-40 μM fructose 1,6-bisphosphate (FBP) and 0-150 nM scFv 5 were added.

[6] = target: T2, WT PKM2; test: Blue native gel electrophoresis of recombinant proteins, WT PKM2; format: binding
Protocol: as §2
Because glucose metabolism can influence cell survival (Fulda and Debatin, 2007; Moley and Mueckler, 2000; Munoz-Pinedo et al., 2012), The present inventors asked whether IB5 could rescue cells simply through stimulating PKM2's glycolytic activity. First, to analyze the antibody's interaction with PKM2, the present inventors produced monovalent scFv 5 and PIKM2 as recombinant proteins in E. coli and analyzed mixtures of these proteins, by blue native gel electrophoresis (FIG. 3A).

[7] = test system: mouse embryonic fibroblasts (MEFs); test: BimS-induced death in MEFs (WT, PKM2-deficient, reconstituted), surviving cells counted; format: cell-based
Protocol: Wild type (WT) mouse embryonic fibroblasts (MEFs), PKM2-deficient MEFs, or PKM2-deficient MEFs reconstituted with WT or mutant PKIM2 cDNA, were infected or not with IB5, then later transfected with BimS expression plasmid. Surviving cells were counted 48 h afterwards.
as §1

[8] = test system: 293T cells; test: Clonogenic survival assay after BimS transfection, 293T cells; format: cell-based, human; conditions: 293T cells
Protocol: Control 293T or IB5-expressing cells were incubated with or without 27 µg/ml TEPP-46 for 3 h, then transfected with BimS cDNA in a further 24-h incubation also including TEPP-46 or vehicle. The plates were fixed and stained with crystal violet after 1 week. The total area of colonies (a measure of the total mass of proliferating cells) formed in each well from were quantified using ImageJ software; mean±SEM are shown from 3 independent experiments.
as §1

B1: IB5: intracellularly expressed single-chain antibody (scFv) specific for PKM2, SEQ ID NO: 2; also made as monovalent recombinant scFv in E. coli (protein)
scFv: MAQVQLVETGPGLVKPSETLSLRCTVSGGSFDNYYWNWIRQPPGKGLEYIGYVFPSTGATNYNPSLGSRVTISLDTSKNQFSLTLTSVTTADTAIYYCVRSGHDLWTGSTWFDPWGQWTTVTVSSGGGGSGGGGSGGGGSEIVLTQSPGTLSLSPGERATLSCRASQSVSSSYLAWYQQKPGQAPRLLIYGASSRATGIPDRFSGSGSGTDFTLTISRLEPEDIAVYYCQQRSNWPRTFGQGTKVEIKRGLGGLASVDYKDDDDK
modifications: artificial intrabody clone 5
notes: also made as monovalent recombinant scFv in E. coli
With B1 the “rescue from BimS-induced clonogenic death” value ([1]; Mfn1-deficient MEFs) was “failed to rescue”, the “rescue from BimS-induced death (clonogenic)” value ([1]; Mfn2-null MEFs) was “rescued” and the “rescue from BimS-induced death (clonogenic)” value ([1]; WT MEFs) was “rescued”. The clonogenic survival ([1]; early passage MEFs with PKM2 (K422R)) was “enhanced clonogenic survival”, the clonogenic survival ([1]; later-passage MEFs with PKM2 (K422R)) was “further enhanced” and the “protection from BimS-induced apoptosis (clonogenicity)” value [2] was “substantially protected”. The “shift of the PKM2 (K422R) tetramer band” value [3] was “shifted the tetramer band up only in the presence of allosteric activator FBP”, the “levels of Bax, Bak, Bid, Bim, Puma, Bcl-2, Bcl-xL and Mcl-1” value [4] was “failed to change the mitochondrial levels” and the “glycolytic (pyruvate kinase) activity of WT PKM2” value [5] was “stimulated PKM2's glycolytic activity in a concentration-dependent manner”. The “tetramer formation of WT PKM2” value ([6]; blue native gel) was “strongly increased the tetrameric PIKMV2 species”, the “direct binding to PKM2” value ([6]; in vitro experiments) was “bound directly to PKM2” and the “rescue from BimS-induced killing” value ([7]; PKM2-deficient MEFs) was “entirely abrogated”. For the same molecule, the “cell rescue after reconstitution” value ([7]; PKM2-null MEFs reconstituted with PKM2 (K270M)) was “failed to support IB5-induced cell rescue”, the “cytoprotective ability after reconstitution” value ([7]; PKM2-null MEFs reconstituted with WT PKM2 cDNA) was “restored the cytoprotective ability of IB5” and the “rescue from BimS-induced killing” value ([7]; WT MEFs) was “rescued a percentage of the WT cells”. For the same molecule, the “numbers of viable cells” value ([7]; early-passage MEFs reconstituted with PKM2 (K422R)) was “further increased viability” and the “clonogenic survival despite BimS expression” value [8] was “produced clonogenic survival”.
